Measured values published in patent US20100216853.

T1: H4-15 histone H4 tail peptide
T1 chain: GRGKGGKGLGKGGAK

T2: H4-12(K5A/K12A) peptide
T2 chain: RGAGGKGLGAGA

T3: H4-12(K5X/K12A) peptide
T3 chain: RGXGGKGLGAGA

T4: H4-15(K5D/K12D) peptide
T4 chain: GRGDGGKGLGDGGAK


Legend:
[1] = biological target: T1, H4-15 histone H4 tail peptide
H4-12(K5A/K12A) peptide = biological target: T2, H4-12(K5A/K12A) peptide
H4-12(K5X/K12A) peptide = biological target: T3, H4-12(K5X/K12A) peptide
H4-15(K5D/K12D) peptide = biological target: T4, H4-15(K5D/K12D) peptide

Protein	Km(µM) for H4-15 [1]	V/K [1]	also measured
semi-synthetic p300 HAT domain E1505R (protein) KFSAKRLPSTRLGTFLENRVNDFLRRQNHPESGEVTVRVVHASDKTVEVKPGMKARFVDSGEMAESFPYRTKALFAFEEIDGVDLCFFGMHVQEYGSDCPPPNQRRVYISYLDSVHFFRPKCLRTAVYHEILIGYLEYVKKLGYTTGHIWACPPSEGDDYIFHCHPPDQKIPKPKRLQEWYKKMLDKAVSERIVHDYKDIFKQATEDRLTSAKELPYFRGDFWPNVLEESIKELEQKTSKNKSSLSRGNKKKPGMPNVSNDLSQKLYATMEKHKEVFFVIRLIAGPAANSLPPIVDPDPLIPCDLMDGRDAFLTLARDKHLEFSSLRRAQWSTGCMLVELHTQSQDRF	>1000	2000 M⁻¹ s⁻¹	V/K decrease against wild-type [1]: V/K was decreased by 12-fold
semi-synthetic p300 HAT domain E1505R/D1625R/D1628R triple mutant (protein) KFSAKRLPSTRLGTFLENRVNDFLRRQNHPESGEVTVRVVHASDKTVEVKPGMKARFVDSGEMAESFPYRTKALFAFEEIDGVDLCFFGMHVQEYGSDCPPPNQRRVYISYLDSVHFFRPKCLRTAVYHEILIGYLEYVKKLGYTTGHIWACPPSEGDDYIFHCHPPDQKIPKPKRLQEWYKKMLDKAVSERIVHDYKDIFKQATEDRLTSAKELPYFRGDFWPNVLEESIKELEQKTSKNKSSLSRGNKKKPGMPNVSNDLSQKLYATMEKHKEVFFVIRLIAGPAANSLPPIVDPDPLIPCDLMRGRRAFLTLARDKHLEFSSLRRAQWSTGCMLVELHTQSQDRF	>1000	232 M⁻¹ s⁻¹	–
semi-synthetic p300 HAT domain S1396R/Y1397R double mutant (protein) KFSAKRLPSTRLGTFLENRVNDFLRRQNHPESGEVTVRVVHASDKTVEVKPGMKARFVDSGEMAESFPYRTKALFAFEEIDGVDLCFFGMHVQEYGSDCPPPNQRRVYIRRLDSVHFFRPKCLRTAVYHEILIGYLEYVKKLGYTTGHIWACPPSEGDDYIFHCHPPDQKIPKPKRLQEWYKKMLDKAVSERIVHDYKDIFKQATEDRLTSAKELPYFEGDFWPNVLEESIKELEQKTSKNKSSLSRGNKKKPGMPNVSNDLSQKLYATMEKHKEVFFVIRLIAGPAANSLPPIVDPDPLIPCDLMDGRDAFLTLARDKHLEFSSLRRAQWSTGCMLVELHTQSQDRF	–	–	decrease of p300 HAT activity against wild-type [1]: severely decreased p300 HAT activity (>50-fold)
semi-synthetic p300 HAT domain D1625R (protein) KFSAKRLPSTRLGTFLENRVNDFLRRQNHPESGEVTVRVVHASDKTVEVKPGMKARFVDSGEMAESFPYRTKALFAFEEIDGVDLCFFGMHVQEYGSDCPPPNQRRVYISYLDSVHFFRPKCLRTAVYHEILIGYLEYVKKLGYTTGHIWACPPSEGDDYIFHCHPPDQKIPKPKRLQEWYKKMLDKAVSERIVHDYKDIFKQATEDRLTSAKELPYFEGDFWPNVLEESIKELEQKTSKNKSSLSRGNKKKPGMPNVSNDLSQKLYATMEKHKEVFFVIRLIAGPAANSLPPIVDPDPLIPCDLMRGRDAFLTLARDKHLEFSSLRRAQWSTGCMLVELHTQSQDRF	640 µM	5670 M⁻¹ s⁻¹	V/K decrease against wild-type [1]: a V/K decrease of about 5-fold
semi-synthetic p300 HAT domain R1410A (protein) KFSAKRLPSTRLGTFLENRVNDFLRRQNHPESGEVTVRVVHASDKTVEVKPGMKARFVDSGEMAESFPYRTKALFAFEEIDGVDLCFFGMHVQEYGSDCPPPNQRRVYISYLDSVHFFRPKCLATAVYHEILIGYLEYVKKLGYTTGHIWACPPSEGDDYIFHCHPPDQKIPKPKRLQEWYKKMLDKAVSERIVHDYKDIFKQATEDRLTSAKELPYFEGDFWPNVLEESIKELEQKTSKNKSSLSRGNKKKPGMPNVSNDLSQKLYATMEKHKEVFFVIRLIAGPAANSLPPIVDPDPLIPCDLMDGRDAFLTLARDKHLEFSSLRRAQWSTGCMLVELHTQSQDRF	190 µM	–	–
semi-synthetic p300 HAT domain R1410K (protein) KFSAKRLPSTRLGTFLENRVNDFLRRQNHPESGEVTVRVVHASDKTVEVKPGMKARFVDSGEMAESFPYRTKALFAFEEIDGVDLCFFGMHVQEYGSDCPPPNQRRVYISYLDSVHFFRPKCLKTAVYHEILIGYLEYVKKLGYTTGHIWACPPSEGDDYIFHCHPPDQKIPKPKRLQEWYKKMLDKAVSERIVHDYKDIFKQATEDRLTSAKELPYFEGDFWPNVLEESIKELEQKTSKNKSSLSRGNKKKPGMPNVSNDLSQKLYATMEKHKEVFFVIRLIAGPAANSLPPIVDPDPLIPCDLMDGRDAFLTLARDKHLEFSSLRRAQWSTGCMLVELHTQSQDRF	156 µM	–	–
semi-synthetic p300 HAT domain T1357R (protein) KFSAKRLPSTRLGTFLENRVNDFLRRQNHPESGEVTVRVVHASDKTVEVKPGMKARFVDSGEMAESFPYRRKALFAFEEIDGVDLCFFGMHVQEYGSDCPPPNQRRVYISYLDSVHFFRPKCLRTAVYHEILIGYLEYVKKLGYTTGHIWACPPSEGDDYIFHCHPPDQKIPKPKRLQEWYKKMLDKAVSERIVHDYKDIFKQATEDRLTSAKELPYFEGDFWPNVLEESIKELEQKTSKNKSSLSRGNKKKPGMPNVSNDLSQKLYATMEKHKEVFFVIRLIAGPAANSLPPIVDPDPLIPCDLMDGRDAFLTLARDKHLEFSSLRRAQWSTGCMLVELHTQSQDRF	294 µM	13200 M⁻¹ s⁻¹	–
semi-synthetic p300 HAT domain T1357L (protein) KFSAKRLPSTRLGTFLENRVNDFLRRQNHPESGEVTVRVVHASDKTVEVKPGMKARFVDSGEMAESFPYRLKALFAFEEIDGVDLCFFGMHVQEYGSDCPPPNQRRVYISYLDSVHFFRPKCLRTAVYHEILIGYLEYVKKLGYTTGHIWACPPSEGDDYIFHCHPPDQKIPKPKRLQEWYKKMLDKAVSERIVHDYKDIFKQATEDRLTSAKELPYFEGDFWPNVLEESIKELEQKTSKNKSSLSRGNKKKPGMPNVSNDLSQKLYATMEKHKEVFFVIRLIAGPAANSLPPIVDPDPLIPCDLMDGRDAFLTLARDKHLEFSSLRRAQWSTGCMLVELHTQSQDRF	111 µM	18700 M⁻¹ s⁻¹	–
semi-synthetic p300 HAT domain D1625R/D1628R double mutant (protein) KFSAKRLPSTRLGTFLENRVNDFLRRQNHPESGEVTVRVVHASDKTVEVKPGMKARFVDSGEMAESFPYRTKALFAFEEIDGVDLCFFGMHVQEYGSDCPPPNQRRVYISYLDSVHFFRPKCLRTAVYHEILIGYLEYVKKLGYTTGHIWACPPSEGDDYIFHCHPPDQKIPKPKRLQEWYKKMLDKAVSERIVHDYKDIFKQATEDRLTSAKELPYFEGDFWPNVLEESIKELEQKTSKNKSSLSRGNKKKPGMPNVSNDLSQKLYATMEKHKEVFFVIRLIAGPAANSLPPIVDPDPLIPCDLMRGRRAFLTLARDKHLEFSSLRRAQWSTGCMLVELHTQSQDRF	>1000	1160 M⁻¹ s⁻¹	V/K(M^-1s^-1) for D1625R/D1628R (H4-12(K5A/K12A) peptide): 515 M⁻¹ s⁻¹; loss in V/K against wild-type (H4-12(K5A/K12A) peptide): the loss of 6-fold in V/K for neutral H4 substrates; V/K(M^-1s^-1) for D1625R/D1628R (H4-12(K5X/K12A) peptide): 738 M⁻¹ s⁻¹; loss in V/K against wild-type (H4-12(K5X/K12A) peptide): the loss of 6-fold in V/K for neutral H4 substrates; V/K difference against wild-type [1]: the 22-fold V/K difference between wild-type p300 HAT protein and the D1625R/D1628R mutant for H4-15 substrate; V/K drop against wild-type [1]: a 20-fold drop in V/K; V/K(M^-1s^-1) for D1625R/D1628R [1]: 1160 M⁻¹ s⁻¹; V/K(M^-1s^-1) for D1625R/D1628R (H4-15(K5D/K12D) peptide): 422 M⁻¹ s⁻¹; acetyltransferase activity against wild-type (H4-15(K5D/K12D) peptide): almost equal (within 2-fold) acetyltransferase activity
semi-synthetic p300 HAT domain Y1467F (protein) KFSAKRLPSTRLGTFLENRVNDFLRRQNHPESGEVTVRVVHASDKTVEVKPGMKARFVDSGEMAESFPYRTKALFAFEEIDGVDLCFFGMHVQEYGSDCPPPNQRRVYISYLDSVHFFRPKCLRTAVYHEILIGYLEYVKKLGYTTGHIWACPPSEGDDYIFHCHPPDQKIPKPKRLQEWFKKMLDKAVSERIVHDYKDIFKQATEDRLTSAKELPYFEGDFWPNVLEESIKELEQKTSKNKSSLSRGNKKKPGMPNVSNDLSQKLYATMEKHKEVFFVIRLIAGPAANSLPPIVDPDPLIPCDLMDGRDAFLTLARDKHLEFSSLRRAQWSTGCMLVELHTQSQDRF	520 µM	–	–
semi-synthetic p300 HAT domain H1434A (protein) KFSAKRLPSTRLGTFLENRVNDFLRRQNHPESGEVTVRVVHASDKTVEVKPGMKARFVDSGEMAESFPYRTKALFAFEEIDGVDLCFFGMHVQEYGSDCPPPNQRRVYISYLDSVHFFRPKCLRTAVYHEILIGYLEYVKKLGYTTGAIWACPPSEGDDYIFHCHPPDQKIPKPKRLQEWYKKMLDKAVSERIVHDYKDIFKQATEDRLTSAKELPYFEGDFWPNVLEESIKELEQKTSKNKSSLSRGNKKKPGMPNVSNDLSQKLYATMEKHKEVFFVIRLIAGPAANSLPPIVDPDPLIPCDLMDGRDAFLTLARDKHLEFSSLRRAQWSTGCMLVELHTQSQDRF	151 µM	–	–
semi-synthetic p300 HAT domain Y1394F (protein) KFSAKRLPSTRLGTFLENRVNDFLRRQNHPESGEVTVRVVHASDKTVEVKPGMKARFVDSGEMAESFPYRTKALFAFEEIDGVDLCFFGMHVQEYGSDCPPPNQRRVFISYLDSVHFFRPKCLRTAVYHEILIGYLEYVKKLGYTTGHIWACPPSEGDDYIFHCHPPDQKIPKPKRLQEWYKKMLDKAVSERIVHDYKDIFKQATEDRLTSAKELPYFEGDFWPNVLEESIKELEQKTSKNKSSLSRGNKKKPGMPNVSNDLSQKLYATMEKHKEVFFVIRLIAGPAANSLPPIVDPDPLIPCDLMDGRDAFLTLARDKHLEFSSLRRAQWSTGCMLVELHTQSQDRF	136 µM	–	–
semi-synthetic p300 HAT domain D1628R (protein) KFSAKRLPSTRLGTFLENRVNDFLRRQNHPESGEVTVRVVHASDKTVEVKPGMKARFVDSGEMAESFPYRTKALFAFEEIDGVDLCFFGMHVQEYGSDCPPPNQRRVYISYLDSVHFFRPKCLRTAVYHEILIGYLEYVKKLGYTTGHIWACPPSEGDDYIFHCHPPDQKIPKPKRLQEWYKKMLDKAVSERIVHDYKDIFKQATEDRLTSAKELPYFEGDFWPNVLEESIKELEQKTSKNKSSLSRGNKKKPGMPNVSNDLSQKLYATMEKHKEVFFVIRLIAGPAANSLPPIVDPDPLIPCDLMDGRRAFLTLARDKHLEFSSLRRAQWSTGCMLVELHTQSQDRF	>1000	2100 M⁻¹ s⁻¹	V/K decrease against wild-type [1]: V/K was decreased by 12-fold
semi-synthetic p300 HAT domain W1436A (protein) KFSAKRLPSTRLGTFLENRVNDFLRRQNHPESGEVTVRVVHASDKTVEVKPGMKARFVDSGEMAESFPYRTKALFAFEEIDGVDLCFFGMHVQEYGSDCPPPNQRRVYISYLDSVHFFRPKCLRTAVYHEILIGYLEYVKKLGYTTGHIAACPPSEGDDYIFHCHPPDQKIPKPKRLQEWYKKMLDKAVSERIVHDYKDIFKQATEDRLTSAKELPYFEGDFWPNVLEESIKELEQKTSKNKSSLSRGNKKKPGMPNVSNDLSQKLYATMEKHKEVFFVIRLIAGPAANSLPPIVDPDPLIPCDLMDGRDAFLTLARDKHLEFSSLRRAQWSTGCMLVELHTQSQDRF	394 µM	–	–
